From paper PMC4091826 (Molecular Biology of the Cell, 2014)
No end group written: not given here.

T1: fluorescein-labeled P5 peptide (also: fluorescein label, position not given here)
T1 peptide: CALLLSAPRR


Assays:
[1] = target: T1, fluorescein-labeled P5 peptide; experiment: fluorescence polarisation
yeast cells = experiment: Growth phenotype; type: cell-based, S. cerevisiae; details: minimal medium or 5-FOA medium, serial dilutions

Molecule | substrate release upon ATP binding [1] | growth phenotype, in words (yeast cells)
Ssc1 E467A suppressor S201 (E467A, D519E), purified (natural protein, S. cerevisiae, UniProt P0CS90 24-654, looked up) QSTKVQGSVIGIDLGTTNSAVAIMEGKVPKIIENAEGSRTTPSVVAFTKEGERLVGIPAKRQAVVNPENTLFATKRLIGRRFEDAEVQRDIKQVPYKIVKHSNGDAWVEARGQTYSPAQIGGFVLNKMKETAEAYLGKPVKNAVVTVPAYFNDSQRQATKDAGQIVGLNVLRVVNEPTAAALAYGLEKSDSKVVAVFDLGGGTFDISILDIDNGVFEVKSTNGDTHLGGEDFDIYLLREIVSRFKTETGIDLENDRMAIQRIREAAEKAKIELSSTVSTEINLPFITADASGPKHINMKFSRAQFETLTAPLVKRTVDPVKKALKDAGLSTSDISEVLLVGGMSRMPKVVETVKSLFGKDPSKAVNPDEAVAIGAAVQGAVLSGEVTDVLLLDVTPLSLGIETLGGVFTRLIPRNTTIPTKKSQIFSTAAAGQTSVEIRVFQGARELVRDNKLIGNFTLAGIPPAPKGVPQIEVTFDIDADGIINVSARDKATNKESSITVAGSSGLSENEIEQMVNDAEKFKSQDEARKQAIETANKADQLANDTENSLKEFEGKVDKAEAQKVRDQITSLKELVARVQGGEEVNAEELKTKTEELQTSSMKLFEQLYKNDSNNNNNNNGNNAESGETKQ | > 50% | 
S1-D519E: suppressor S1-D519E subcloned into the E467A-D411R backbone (protein, left off: His6, end not stated, state not stated) QSTKVQGSVIGIDLGTTNSAVAIMEGKVPKIIENAEGSRTTPSVVAFTKEGERLVGIPAKRQAVVNPENTLFATKRLIGRRFEDAEVQRDIKQVPYKIVKHSNGDAWVEARGQTYSPAQIGGFVLNKMKETAEAYLGKPVKNAVVTVPAYFNDSQRQATKDAGQIVGLNVLRVVNEPTAAALAYGLEKSDSKVVAVFDLGGGTFDISILDIDNGVFEVKSTNGDTHLGGEDFDIYLLREIVSRFKTETGIDLENDRMAIQRIREAAEKAKIELSSTVSTEINLPFITADASGPKHINMKFSRAQFETLTAPLVKRTVDPVKKALKDAGLSTSDISEVLLVGGMSRMPKVVETVKSLFGKDPSKAVNPDEAVAIGAAVQGAVLSGEVTDVLLLDVTPLSLGIETLGGVFTRLIPRNTTIPTKKSQIFSTAAAGQTSVEIRVFQGARELVRDNKLIGNFTLAGIPPAPKGVPQIEVTFDIDADGIINVSARDKATNKESSITVAGSSGLSENEIEQMVNDAEKFKSQDEARKQAIETANKADQLANDTENSLKEFEGKVDKAEAQKVRDQITSLKELVARVQGGEEVNAEELKTKTEELQTSSMKLFEQLYKNDSNNNNNNNGNNAESGETKQ |  | significant growth rescue of the E467A-D411R–associated lethality at different temperatures on 5-FOA medium
E467A-D416R (protein, UniProt P0CS90 24-654, looked up, variant E467A D416R) Import motor subunit, …: QSTKVQGSVIGIDLGTTNSAVAIMEGKVPKIIENAEGSRTTPSVVAFTKEGERLVGIPAKRQAVVNPENTLFATKRLIGRRFEDAEVQRDIKQVPYKIVKHSNGDAWVEARGQTYSPAQIGGFVLNKMKETAEAYLGKPVKNAVVTVPAYFNDSQRQATKDAGQIVGLNVLRVVNEPTAAALAYGLEKSDSKVVAVFDLGGGTFDISILDIDNGVFEVKSTNGDTHLGGEDFDIYLLREIVSRFKTETGIDLENDRMAIQRIREAAEKAKIELSSTVSTEINLPFITADASGPKHINMKFSRAQFETLTAPLVKRTVDPVKKALKDAGLSTSDISEVLLVGGMSRMPKVVETVKSLFGKDPSKAVNPDEAVAIGAAVQGAVLSGEVTDVLLLRVTPLSLGIETLGGVFTRLIPRNTTIPTKKSQIFSTAAAGQTSVEIRVFQGARELVRDNKLIGNFTLAGIPPAPKGVPQIEVTFDIDADGIINVSARDKATNKDSSITVAGSSGLSENEIEQMVNDAEKFKSQDEARKQAIETANKADQLANDTENSLKEFEGKVDKAEAQKVRDQITSLKELVARVQGGEEVNAEELKTKTEELQTSSMKLFEQLYKNDSNNNNNNNGNNAESGETKQ |  | semidominant phenotype
S2-V524I: suppressor S2-V524I subcloned into the E467A-D411R backbone (protein, left off: His6, end not stated, state not stated) QSTKVQGSVIGIDLGTTNSAVAIMEGKVPKIIENAEGSRTTPSVVAFTKEGERLVGIPAKRQAVVNPENTLFATKRLIGRRFEDAEVQRDIKQVPYKIVKHSNGDAWVEARGQTYSPAQIGGFVLNKMKETAEAYLGKPVKNAVVTVPAYFNDSQRQATKDAGQIVGLNVLRVVNEPTAAALAYGLEKSDSKVVAVFDLGGGTFDISILDIDNGVFEVKSTNGDTHLGGEDFDIYLLREIVSRFKTETGIDLENDRMAIQRIREAAEKAKIELSSTVSTEINLPFITADASGPKHINMKFSRAQFETLTAPLVKRTVDPVKKALKDAGLSTSDISEVLLVGGMSRMPKVVETVKSLFGKDPSKAVNPDEAVAIGAAVQGAVLSGEVTDVLLLDVTPLSLGIETLGGVFTRLIPRNTTIPTKKSQIFSTAAAGQTSVEIRVFQGARELVRDNKLIGNFTLAGIPPAPKGVPQIEVTFDIDADGIINVSARDKATNKDSSITIAGSSGLSENEIEQMVNDAEKFKSQDEARKQAIETANKADQLANDTENSLKEFEGKVDKAEAQKVRDQITSLKELVARVQGGEEVNAEELKTKTEELQTSSMKLFEQLYKNDSNNNNNNNGNNAESGETKQ |  | significant growth rescue of the E467A-D411R–associated lethality at different temperatures on 5-FOA medium
S7-N508T: suppressor S7-N508T subcloned into the E467A-D411R backbone (protein, left off: His6, end not stated, state not stated) QSTKVQGSVIGIDLGTTNSAVAIMEGKVPKIIENAEGSRTTPSVVAFTKEGERLVGIPAKRQAVVNPENTLFATKRLIGRRFEDAEVQRDIKQVPYKIVKHSNGDAWVEARGQTYSPAQIGGFVLNKMKETAEAYLGKPVKNAVVTVPAYFNDSQRQATKDAGQIVGLNVLRVVNEPTAAALAYGLEKSDSKVVAVFDLGGGTFDISILDIDNGVFEVKSTNGDTHLGGEDFDIYLLREIVSRFKTETGIDLENDRMAIQRIREAAEKAKIELSSTVSTEINLPFITADASGPKHINMKFSRAQFETLTAPLVKRTVDPVKKALKDAGLSTSDISEVLLVGGMSRMPKVVETVKSLFGKDPSKAVNPDEAVAIGAAVQGAVLSGEVTDVLLLDVTPLSLGIETLGGVFTRLIPRNTTIPTKKSQIFSTAAAGQTSVEIRVFQGARELVRDNKLIGNFTLAGIPPAPKGVPQIEVTFDIDADGIITVSARDKATNKDSSITVAGSSGLSENEIEQMVNDAEKFKSQDEARKQAIETANKADQLANDTENSLKEFEGKVDKAEAQKVRDQITSLKELVARVQGGEEVNAEELKTKTEELQTSSMKLFEQLYKNDSNNNNNNNGNNAESGETKQ |  | significant growth rescue of the E467A-D411R–associated lethality at different temperatures on 5-FOA medium
Ssc1 E467A suppressor S204 (E467A, D519N), purified (natural protein, S. cerevisiae, UniProt P0CS90 24-654, looked up) QSTKVQGSVIGIDLGTTNSAVAIMEGKVPKIIENAEGSRTTPSVVAFTKEGERLVGIPAKRQAVVNPENTLFATKRLIGRRFEDAEVQRDIKQVPYKIVKHSNGDAWVEARGQTYSPAQIGGFVLNKMKETAEAYLGKPVKNAVVTVPAYFNDSQRQATKDAGQIVGLNVLRVVNEPTAAALAYGLEKSDSKVVAVFDLGGGTFDISILDIDNGVFEVKSTNGDTHLGGEDFDIYLLREIVSRFKTETGIDLENDRMAIQRIREAAEKAKIELSSTVSTEINLPFITADASGPKHINMKFSRAQFETLTAPLVKRTVDPVKKALKDAGLSTSDISEVLLVGGMSRMPKVVETVKSLFGKDPSKAVNPDEAVAIGAAVQGAVLSGEVTDVLLLDVTPLSLGIETLGGVFTRLIPRNTTIPTKKSQIFSTAAAGQTSVEIRVFQGARELVRDNKLIGNFTLAGIPPAPKGVPQIEVTFDIDADGIINVSARDKATNKNSSITVAGSSGLSENEIEQMVNDAEKFKSQDEARKQAIETANKADQLANDTENSLKEFEGKVDKAEAQKVRDQITSLKELVARVQGGEEVNAEELKTKTEELQTSSMKLFEQLYKNDSNNNNNNNGNNAESGETKQ | > 50% | 
Ssc1 E467A suppressor S202 (E467A, V524I), purified (natural protein, S. cerevisiae, UniProt P0CS90 24-654, looked up) QSTKVQGSVIGIDLGTTNSAVAIMEGKVPKIIENAEGSRTTPSVVAFTKEGERLVGIPAKRQAVVNPENTLFATKRLIGRRFEDAEVQRDIKQVPYKIVKHSNGDAWVEARGQTYSPAQIGGFVLNKMKETAEAYLGKPVKNAVVTVPAYFNDSQRQATKDAGQIVGLNVLRVVNEPTAAALAYGLEKSDSKVVAVFDLGGGTFDISILDIDNGVFEVKSTNGDTHLGGEDFDIYLLREIVSRFKTETGIDLENDRMAIQRIREAAEKAKIELSSTVSTEINLPFITADASGPKHINMKFSRAQFETLTAPLVKRTVDPVKKALKDAGLSTSDISEVLLVGGMSRMPKVVETVKSLFGKDPSKAVNPDEAVAIGAAVQGAVLSGEVTDVLLLDVTPLSLGIETLGGVFTRLIPRNTTIPTKKSQIFSTAAAGQTSVEIRVFQGARELVRDNKLIGNFTLAGIPPAPKGVPQIEVTFDIDADGIINVSARDKATNKDSSITIAGSSGLSENEIEQMVNDAEKFKSQDEARKQAIETANKADQLANDTENSLKEFEGKVDKAEAQKVRDQITSLKELVARVQGGEEVNAEELKTKTEELQTSSMKLFEQLYKNDSNNNNNNNGNNAESGETKQ | > 50% | 
Ssc1 E467A suppressor S203 (E467A, D519Y), purified (natural protein, S. cerevisiae, UniProt P0CS90 24-654, looked up) QSTKVQGSVIGIDLGTTNSAVAIMEGKVPKIIENAEGSRTTPSVVAFTKEGERLVGIPAKRQAVVNPENTLFATKRLIGRRFEDAEVQRDIKQVPYKIVKHSNGDAWVEARGQTYSPAQIGGFVLNKMKETAEAYLGKPVKNAVVTVPAYFNDSQRQATKDAGQIVGLNVLRVVNEPTAAALAYGLEKSDSKVVAVFDLGGGTFDISILDIDNGVFEVKSTNGDTHLGGEDFDIYLLREIVSRFKTETGIDLENDRMAIQRIREAAEKAKIELSSTVSTEINLPFITADASGPKHINMKFSRAQFETLTAPLVKRTVDPVKKALKDAGLSTSDISEVLLVGGMSRMPKVVETVKSLFGKDPSKAVNPDEAVAIGAAVQGAVLSGEVTDVLLLDVTPLSLGIETLGGVFTRLIPRNTTIPTKKSQIFSTAAAGQTSVEIRVFQGARELVRDNKLIGNFTLAGIPPAPKGVPQIEVTFDIDADGIINVSARDKATNKYSSITVAGSSGLSENEIEQMVNDAEKFKSQDEARKQAIETANKADQLANDTENSLKEFEGKVDKAEAQKVRDQITSLKELVARVQGGEEVNAEELKTKTEELQTSSMKLFEQLYKNDSNNNNNNNGNNAESGETKQ | > 50% | 
